Test results as given in US20090017017A1 (SYMPHOGEN A S, published 2009).
Where a chain is given by its changes, count along the chain named.

B1: RhD244.158B10 (Fab, V domains shown)
VH: QVQLVESGGGVVQPGRSLRLSCAASGFSFSSYGMHWVRQAPGKGLEWVAIIWYDGSNKLYADSVKGRFTISRDNSRNTLYLQMSSVRAEDTAVYYCARDSVRGVSRWGTQKYYAMDVWGQGTTVTVSS
VL: DIQMTQSPSSLSASVGDRVIITCRASQSVNRYLNWYQQKPGKAPKLLIYAASSLQGGVPSRFSGSGSGTDFTLTISSLQREDFATYYCQQSYRTRTFGQGTKVEIKR
notes: Tested as Fab in E. coli periplasmic extract (VH on human gamma 1 CH1, vector Em351)
B2: RhD206.160C06 (Fab, V domains shown)
VH: QVQLVESGGGVVQPGRSLRLSCAASGFTFSSYGMHWVRQAPGKGLEWVAIIWFDGSNKYYADSVKGRFTISRDNSKNTLYLQINSLRAEDTAVYYCAKEHGYYSSSWYRNYYYYAMDVWGQGTTVTVSS
VL: DIQMTQSPSSLSASVGDRVTITCRASQSIRRYLNWYQKKPGKAPKLLIYAASSLQSGVPSRFSGSGSGTDFTLTISSLQPEDFATYYCQQSYRTQGLTFGGGTKVEIKR
notes: as for B1
B3: RhD296.126A03 (Fab, V domains shown)
VH: EVQLVESGGGVVQPGRSLRLSCEASGFTFSNYGMHWFRQAPGKGLEWVAIIWYDGSNKHYADSVKGRFTISRDNSKNTLYLQMNSLRAEDTAVYFCAREIASRGYSRYLYYFDSWGQGTLVTVSS
VL: B2 VL with R30S, R31S, K38Q, Y49F, T72S, R93S, T94S, Q95L, G96A
notes: as for B1
B4: RhD295.119B11 (Fab, V domains shown)
VH: QVQLVESGGGLVQPGGSLRLSCVGSGFTFRSFDMNWVRQAPGKGLEWISYINSRGNTRYYVDSVKGRFTISRDNAKNSLYLQMNSLRAEDTAVYYCARDLYGDYDPKSYYYYGMDVWGQGTMVTVSS
VL: EIVLTQSPGTLSLSPGERATLSCRASQSFSSGYLAWYQQKPGQAPRLLIYGASNRATGIPDRFSGSGSGTDFTLTISRLEPEDFAVYYCQHYGSSPPITFGQGTRLEIKR
notes: as for B1
B5: RhD159.119B09 (Fab, V domains shown)
VH: EVQLVETGGGLVQPGGSLRLSCAASGFSFRSYDMNWVRQAPGKGLEWVSYISGRGSTTYYADSVKGRFTISRDNAKNSLYLQMNSLRAEDTAVYYCARDLYGDYDPKSYYYYAMDVWGHGTTVTVSS
VL: EIVMTQSPGTLSLSPGERATLSCRASHTVSSGYLAWYQQKPGQAPRLLIYGASNRATGVPDRFGGSGSGTDFTLTISRLEPEDSAVYFCQQYGTSPGVTFGQGTRLEIER
notes: as for B1
B6: RhD243.109A05 (Fab, V domains shown)
VH: QVQLVESGGGVVQPGRSLRLSCAASGFTFSTYGMHWVRQAPGKGLEWVAVIWYDGSQKYYVDSVKGRFTISRDNSKNTLYLQMNSLRAEDTAVYYCAREVAVRGVIRYYYGMDVWGQGTTVTVSS
VL: DIQLTQSPSSLAASVGDRVIITCRSGQGIRNYLNWYQQKPGKAPKLLIYAASFLQSGVPSRFSGSGSGTDFTLTISSLQPEDFATYNCQQSYSDPWTFGQGTKVEIKR
notes: as for B1
B7: RhD293.109A09 (Fab, V domains shown)
VH: B6 VH with Q1E, S30N, Q57N, V61A, G111A
VL: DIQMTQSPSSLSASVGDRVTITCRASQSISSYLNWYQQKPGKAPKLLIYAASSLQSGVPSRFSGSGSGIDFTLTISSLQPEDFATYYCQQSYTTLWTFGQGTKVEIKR
notes: as for B1
B8: RhD158.119B06 (Fab, V domains shown)
VH: EVQLVETGGGVVQPGRSLRLSCAASGFSFSNFGFHWIRQSPGKGLEWVAVIWYDGSNRFYADSVKGRFTISRDSSKNMLFLQMDSLRAEDTAVYYCAREISMKVVIRRHYVMDVWGHGTTVTVSS
VL: DIQMTQSPSPLSASVGDRVSITCRASRGISNSLAWYQQKPGKVPKLLIYAASTLQSGVPSRFSGGGSGTDFTLTISSLQPEDVATYYCHTYNSAPFAFGPGTKVDIKR
notes: as for B1
B9: RhD160.119C07 (Fab, V domains shown)
VH: EVQLVESGGGVVQPGRSLRLSCAASGFTFSNYGMHWVRQAPGKGLEWVAVIWYDGSNRFYADSVKGRFTISRDNSKNTLYLQMNNLRAEDTALYSCAREITTTVVVRRHYLMDIWGQGTTVTVSS
VL: B8 VL with M4L, P10S, R27Q, H89Q, T90K
notes: as for B1
B10: RhD208.179B11 (Fab, V domains shown)
VH: EVQLVESGGGVVQPGRSLRLSCAASGFTFRTSAMHWVRQAPGKGLEWVAVIWYDGSNKYYADSVKGRFTISRDNSKNTLYLQMNSLRAEDTAVYYCAREMVSYSSSWYRRYYYYNMDVWGKGTTVTVSS
VL: QAVVTQEPSLTVSPGGTVTLTCASSTGSVTSGYYPNWFQQKPGQAPRPLISGTSNKLSWTPARFSGSLLGGKAALTVSGVQPEDEAVYYCLLYYGVPQPVVFGGGTKLTVLG
notes: as for B1
B11: RhD246.179B10 (Fab, V domains shown)
VH: B10 VH with S7T, R30S, T31S, S32Y, A33G
VL: LSSELTQDPAVSVTLGQTVRITCQGDSLRHSYASWYQQKPGQAPILVIYGKNIRPSGIPDRFSGSTSGNTASLTITGAQAEDGGDYYCNSRDTSTDHYVFGDGTRVTVVG
notes: as for B1
B12: RhD242.181A03 (Fab, V domains shown)
VH: B10 VH with R30S, T31N, S32H, A33G, V101A, N115V
VL: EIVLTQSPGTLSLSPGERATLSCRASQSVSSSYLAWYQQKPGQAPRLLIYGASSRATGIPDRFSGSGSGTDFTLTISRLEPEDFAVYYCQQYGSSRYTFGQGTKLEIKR
notes: as for B1
B13: RhD294.119E10 (Fab, V domains shown)
VH: QVQLVESGGGVVQPGRSLRLSCAASGFSFSNYGMHWVRQAPGKGLEWVAVISYDGSEKYYADSVKGRFTISRDNSKKTLYLQMNSLRAEDTAMYYCKNKVGATRRAVVAVDIWGQGTMVTVSS
VL: EIVLTQSPGTLSLSPRERATLSCRANQYVNSNHLAWYQQKPGQAPRLLLYGASRRATGIPDRFSGSGTGTDFTLIISRLEPEDFAVYFCQLYDHSRPMYTFGQGTKLEIKR
notes: as for B1
B14: RhD241.119B05 (Fab, V domains shown)
VH: QVQLQESGPGLVKPSETLSLICTVSGGSISSNYWSWIRQPPGKGLEWIGYIYYSGNTNYNPSLKSRVTISLDTSKNQFSLKLRSVTAADTAVYYCAREWRQYGSGIRGSRYYYGMDVWGQGTLVTVSS
VL: EIVLTQSPVTLSLSPGERATLSCRASQSVSSGYLAWYQQKPGQAPRLLIYGTSIRATGIPDRFSGSGSGTDFTLTISRLEPEDFAVYYCQQYGSSPLYSFGQGTKVDIKR
notes: as for B1
B15: RhD240.125A09 (Fab, V domains shown)
VH: QLQLQESGPGLVKPSGTLSLTCAVSGGSMRSSNWWTWVRQPPGKGLEWIGEIHHGGSTNYNPSLQSRVTISVDKSKNRFSLKLSSVTAADTAVYHCARGRSYYDSSGHSFRGLVPFDIWGQGTMVTVSS
VL: DIQMTQSPSTLSASVGDRVTITCRASQSISSWLAWYQQKPGKAPKLLVYKTSSLEGGVPSRFSGSGSGTEFSLTIFRLQSDDFATYYCQQYNSFPYTFGQGTKLEFTR
notes: as for B1
B16: RhD239.126F09 (Fab, V domains shown)
VH: QVQLVESGGGVVQPGTSLRLSCAASGFTFRTYGMHWVRQAPGKGLEWVAYIWYDGSNKYYADSVKGRFTISRDNSKSTLNLQMNSLRAEDTAVYYCAREIASRGYSRYLYYFDSWGQGTLVTVSS
VL: DIQLTQSPSSLSASVGDRVTITCRASQSISSYLNWYQQKPGKAPKLLISAASSLQSGVPSRFSGSGSGTDFTLTISSLQREDYATYYCQQSYSTPPYTFGQGTKLEIKR
notes: as for B1
B17: RhD292.109A02 (Fab, V domains shown)
VH: QVQLVETGGGVVQPGRSLRLSCAASGFTFSSYGMHWVRQAPGKGLEWVAVIWSDGSNKYYADSVKGRFTISRDNSRNTLYLQMNSLRAEDTAVFYCAREQGGYSSSWYRRYYYYYMDVWGQGTTVTVSS
VL: B16 VL with L4M, Y32W, K45N, S49F, S53T, R80P, Y83F, T94S, P95S, P96V
notes: as for B1
B18: RhD245.164E06 (Fab, V domains shown)
VH: EVQLVQSGGGVVQPGRSPRLSCAASGFTFSSYGMHWVRQAPGKGLEWVAFIWYDGSNKYYADSVKGRFTISRDNSKNTLYLQMNSLRAEDTAVYYCARDLRNHVFWSGYSTSFDYWGQGTLVTVSS
VL: DIQMTQSPSSLSASVGDGITITCRASQSVRSYLNWYQQKPGKAPELLIYAASRLQSGVPSRFSGSGSGTDFTLTISSLQPEDFATYYCQHSYSTPVTFGQGTKVEVKR
notes: as for B1

Molecular target: T1, Rhesus D antigen (human, UniProt Q02161 2-417)
T1 construct: whole, on cells; Presented on RhD(+) erythrocytes; also called RhD; RhD antigen
T1 sequence (looked up): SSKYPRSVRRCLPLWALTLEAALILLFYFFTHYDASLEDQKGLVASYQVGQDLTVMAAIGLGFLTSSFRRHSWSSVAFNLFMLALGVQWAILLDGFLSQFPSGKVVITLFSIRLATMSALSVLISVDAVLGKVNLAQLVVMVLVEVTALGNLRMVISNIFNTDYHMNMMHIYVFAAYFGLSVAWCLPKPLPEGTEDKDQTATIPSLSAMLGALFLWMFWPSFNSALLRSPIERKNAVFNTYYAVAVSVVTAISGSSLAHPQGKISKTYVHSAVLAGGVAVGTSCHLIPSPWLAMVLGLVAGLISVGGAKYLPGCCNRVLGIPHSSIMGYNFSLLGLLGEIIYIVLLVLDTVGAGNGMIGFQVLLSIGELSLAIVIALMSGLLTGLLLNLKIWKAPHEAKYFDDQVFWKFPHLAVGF
Test: agglutination assay, Fab periplasmic extract on RhD(+)/RhD(-) RBC mix
Protocol: After each round of panning single colonies were picked for analysis of their binding properties to red blood cells in agglutination assays. Briefly, single colonies were inoculated into 2×YT/100 μg/mL carbenicillin/1% glucose and shaken overnight at 37° C. The next day, DeepWell plates were inoculated using 900 μl 2×YT/100 μg/mL carbenicillin/0.1% glucose and 10 μl overnight culture. The plates were shaken for two hours at 37° C., before Fab induction was performed with addition of 300 μl 2×YT/100 μg/mL carbenicillin/0.25 mM IPTG per well. The plate was shaken overnight at 30° C. The following day, the bacteria were pelleted by centrifugation (3200×g, 4° C., 10 minutes), and re-suspended in 100 μl of 0.8 M NaCl, 0.2×PBS, 8 mM EDTA, and incubated for 15 minutes on ice in order to perform a periplasmic extraction of the Fab fragments. The plate was transferred to −20° C. and finally the suspension was thawed and centrifugation was performed for 10 minutes at 4° C. and 3200×g. The periplasmic extract was used in ELISA assays for analysis of Fab content and in agglutination assays to evaluate the binding potential of the individual Fab fragments.
The agglutination assay was performed as follows: RhD(−) and RhD(+) RBC were mixed in a 1:1 ratio, and washed 3 times in PBS. After the final wash, the cell mix was re-suspended in 1% BSA in PBS at a density of 10% cells, 50 μl was added to each well of a 96-plate. Periplasmic extracts were added to the wells. As a positive control Rhesogamma P immunoglobulin (Aventis) was used according to the manufacturer's instructions. The plates were incubated for one hour at room temperature with gentle shaking. The cells were washed three times with PBS, before the secondary antibody was added (goat anti-human Fab/FITC conjugate, Sigma F5512) in a 1:100 dilution. The plates were left for agglutination for one hour at room temperature without shaking. Fab fragments positive in the agglutination assay was determined by visual inspection, and recorded by taking a picture. Quantization of the binding activity of the Fab fragments was performed by FACS analysis of the agglutination samples.

| Binder | binding result |
| --- | --- |
| B1 | binds |
| B2 | binds |
| B3 | binds |
| B4 | binds |
| B5 | binds |
| B6 | binds |
| B7 | binds |
| B8 | binds |
| B9 | binds |
| B10 | binds |
| B11 | binds |
| B12 | binds |
| B13 | binds |
| B14 | binds |
| B15 | binds |
| B16 | binds |
| B17 | binds |
| B18 | binds |
